Data as given in paper doi:10.1101/318345v1.

B1: IDH (Pseudomonas aeruginosa PAO1) (protein)
chain: MSIRSKITYTFTDEAPALATYSLLPIVKAFAASAGIDVETSDISLAGRILANFADRLEADQRIEDDLARLAVLATSPDANIIKLPNISASVPQLKGAIAELQGLGYKVPDFPEDPQTDEEKEVRARYAKILGSAVNPVLREGNSDRRAPAAVKAYARKHPHSMGKWSMASRSHADYMRGGDFFSSEQSITMAKAGDVRIEFVGKDGKVEVKKQLSLQEGEVLDSMFMSCGKLRDFFEKTLQDCKETGVMWSLHVKATMMKISHPIVFGHAVSVYYKDVFDKWGQLFEELGVNPNNGISSVYDKIKSLPASQQEEILHDIHEVYSHRPEMAMVDSVKGITNLHIPSDVIVDASMPAMIRNSGQMWGKDGKQKDTKAVMPESTYARIYQEMINFCKTNGAFDPTTMGSVPNVGLMAQKAEEYGSHDKTFEMTADGTMRVVLADGSVLMQHKVETGDIWRACQTKDAPIRDWVKLAVTRARQSDTPAIFWLDPERAHDRELRKKVELYLKDHDLTGLDISIMGYNEAIRVSMERLIRGKDTISVTGNVLRDYLTDLFPIMELGTSAKMLSIVPLMAGGGMYETGAGGSAPKHVQQLVEENYLRWDSLGEFLALAVSLEETGIKTGNAKAKLLGKALDEATGKLLDNNKSPSRKVGDIDNRGSHFYLAMYWAQALAAQNEDAELKAHFAPLAKALTEQEATIVAELNAVQGKPAEIGGYYRSNPELTSKVMRPSATFNAAIDSLA
B2: ICD (Pseudomonas aeruginosa PAO1) (protein)
chain: MGYQKIQVPATGDKITVNADMSLSVPKNPIIPFIEGDGIGVDISPVMIKVVDAAVEKAYKGERKIAWMEVYAGEKATQVYDQDTWLPQETLDAVRDYVVSIKGPLTTPVGGGIRSLNVALRQQLDLYVCQRPVRWFEGVPSPVKKPGDVDMVIFRENSEDIYAGVEWKAGSPEAEKVIKFLTEEMGVKKIRFTENCGIGIKPVSQEGTKRLVRKALQYAVDNDRSSVTLVHKGNIMKFTEGAFKDWGYEVARDEFGAELLDGGPWMQFKNPKTGKNVVVKDVIADAMLQQILLRPAEYDVIATLNLNGDYLSDALAAEVGGIGIAPGANLSDSVAMFEATHGTAPKYAGQDKVNPGSLILSAEMMLRHMGWTEAADLIIKGTNGAIAAKTVTYDFERLMDGATLLSCSEFGDAMIAKM

How the values were obtained:
purified protein [1] = substrate: O=C(O)C[C@H](C(=O)O)[C@@H](O)C(=O)O; experiment: purified protein; assay type: biochemical, Pseudomonas aeruginosa; conditions: 200 μM NADP+, 5 mM MgCl2, pH 7.5, 37 °C
purified protein [2] = substrate: NC(=O)c1ccc[n+]([C@@H]2O[C@H](COP(=O)(O)OP(=O)(O)OC[C@H]3O[C@@H](n4cnc5c(N)ncnc54)[C@H](OP(=O)(O)O)[C@@H]3O)[C@@H](O)[C@H]2O)c1; experiment: purified protein; assay type: biochemical, Pseudomonas aeruginosa; conditions: 200 μM isocitrate, 5 mM MgCl2, pH 7.5, 37 °C

| Protein | Km (purified protein [1]) [µM] | kcat (purified protein [1]) [s⁻¹] | Km (purified protein [2]) [µM] | kcat (purified protein [2]) [s⁻¹] |
| --- | --- | --- | --- | --- |
| B1 | 17.7 | 183.7 |  |  |
| B2 | 25.6 | 608.8 | 32.3 | 684.9 |
